Laboratory results published in patent publication US20100303808A1 (published 2010).

Experiments:
human CD20 [1] = biological target: T1, human CD20 (human, UniProt P11836 1-297); assay: cell-based or functional assay
T1 sequence (looked up): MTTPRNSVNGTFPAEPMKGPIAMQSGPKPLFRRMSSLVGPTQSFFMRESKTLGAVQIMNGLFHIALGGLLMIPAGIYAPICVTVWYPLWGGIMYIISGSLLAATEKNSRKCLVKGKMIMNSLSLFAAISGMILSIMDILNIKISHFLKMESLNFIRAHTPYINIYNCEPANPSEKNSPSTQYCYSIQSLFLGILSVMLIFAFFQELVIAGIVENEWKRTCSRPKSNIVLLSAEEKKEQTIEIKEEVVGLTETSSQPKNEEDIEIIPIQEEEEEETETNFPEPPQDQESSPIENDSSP

human CD20 [2] = biological target: T1, human CD20; assay: dissociation of DyLight 488-labelled antibody from Raji cells at 37 C in excess unlabelled antibody, FACS MFI; average of Studies 1 and 2; design: unit not given here
Protocol: (§1) All antibodies were conjugated to a fluorescein-like fluorophore, DyLight 488, according to vendor instructions (Pierce Cat. No. 53025). Following conjugation, labeled antibody was separated from free dye using chromatography columns provided in the labeling kit. […] Purified labeled antibodies were stored at 4° C. in PBS protected from light.
(§2) To measure antibody dissociation from cells, 10⁶ Raji cells were suspended in PBS containing 1% bovine serum albumin (PBS/BSA). Labeled antibody was added to a final concentration of 5 ug/ml in a volume of 1.0 ml. Following a 30 minute incubation at 37° C., unlabeled (“cold”) antibody was added to a final concentration of 1000 ug/ml. Labeled cells mixed with cold antibody were returned to 37° C. for 4 hours. At 20-minute intervals, 100 ul aliquots of cells were withdrawn from each sample, 400 uL cold PBS/BSA containing propidium iodide was added and mean fluorescence intensity (MFI) of the cell population excluding dead cells (PI⁺) determined by FACS.

human CD20 [3] = biological target: T1, human CD20; assay: dissociation of DyLight 488-labelled antibody from Raji cells at 37 C in excess unlabelled antibody, FACS MFI; Study 1; design: unit not given here
Protocol: as §1, §2

human CD20 [4] = biological target: T1, human CD20; assay: dissociation of DyLight 488-labelled antibody from Raji cells at 37 C in excess unlabelled antibody, FACS MFI; Study 2; design: unit not given here
Protocol: as §1, §2

human CD20 [5] = biological target: T1, human CD20; assay: ELISA on fixed Raji cells (CD20+), anti-human kappa detection
Protocol: Raji cells (80 μl; 1-2×10⁶ cells/ml in 24 ml with fresh growth medium diluted with 0.11 vol of 10×PBS (MPBS) and 8 ml 8% paraformaldehyde (in PBS)) were added to 96-well poly-D-lysine-coated plate and centrifuged at 2500 rpm (Beckman 6L) at 25° C. for 60 minutes. The pellets were washed 4 times with 400 μl PBS, Tween 20 (0.02% v/v). 50 μl of MPBS was added to each well after the final wash, and incubated for 1 hour at room temperature, and the blocking buffer was then discarded. Serial dilutions of the 1F5 antibodies were prepared in MPBS in a separate 96-well plate, transferred to the Raji-cell coated plate and incubated at room temperature for 1 hour. The antibody solution was then discarded and the plates were washed 6 times with 400 μl PBS buffer. Goat anti-human kappa (Sigma A7164) was prepared by diluting the stock antibody solution 1:2000 in MPBS, added to the washed wells, and incubated again at room temperature for 1 hour. The plates were again washed 6 times in 400 μl PBS buffer. 100 μl of K-blue TMB solution was added to each well. The reactions were stopped by added 50 μl red stop after 30 minutes, and the absorbance was read at 650 nm.

human CD20 [6] = biological target: T1, human CD20; assay: cell-based or functional assay; remark: listed apart in the source

Binder	LogEC50, complement dependent cytotoxicity (CDC) on Raji cells (human CD20 [1])	Half-life (dissociation from Raji cells), average (human CD20 [2])	Half-life (dissociation from Raji cells) (human CD20 [3])	Half-life (dissociation from Raji cells) (human CD20 [4])	binding result (human CD20 [5])	complement dependent cytotoxicity (CDC) on Raji cells, relative to rituximab (human CD20 [6]) [times less than rituximab]
1F5RHA x 1F5RKB11 (antibody, human IgG1, kappa, V domains shown, also called RHA x RKB11; Variant D) VH: QVQLVQSGAEVKKPGASVKVSCKASGYTFTSYNMHWVRQAPGQRLEWIGAIYPGNGDTSYNQKFKGRVTVTRDTSANTAYMELSSLKSEDTAVYYCARSHYGSNYVDYFDYWGQGTLVTVSS VL: EIVLTQSPSSLSASVGDRVTITCRASSSLSFMHWYQQKPGKAPKPWIYATSNLASGVPSRFSGSGSGTDYTLTISSLQPEDFATYFCHQWSSNPLTFGGGTKVEIKR	-1.06	52	44	59		
1F5RHA x 1F5RKB12 (antibody, human IgG1, kappa, V domains shown, also called RHA x RKB12; Variant F) VH: QVQLVQSGAEVKKPGASVKVSCKASGYTFTSYNMHWVRQAPGQRLEWIGAIYPGNGDTSYNQKFKGRVTVTRDTSANTAYMELSSLKSEDTAVYYCARSHYGSNYVDYFDYWGQGTLVTVSS VL: EIVLTQSPGTLSLSPGERATLSCRASSSLSFMHWYQQKPGQAPRPWIYATSNLASGIPARFSGSGSGTDYTLTISRLEPEDFAVYFCHQWSSNPLTFGQGTKVELKR	-1.13	68	72	64		
1F5RHA x chimeric c1F5VK (antibody, human IgG1, kappa, V domains shown, IgG1 kappa from HEK293T conditioned medium; also called chimeric VK x 1F5RHA) VH: QVQLVQSGAEVKKPGASVKVSCKASGYTFTSYNMHWVRQAPGQRLEWIGAIYPGNGDTSYNQKFKGRVTVTRDTSANTAYMELSSLKSEDTAVYYCARSHYGSNYVDYFDYWGQGTLVTVSS VL: QIVLSQSPAILSASPGEKVTMTCRASSSLSFMHWYQQKPGSSPKPWIYATSNLASGVPARFSGSGSGTSYSLTISRVEAEDAATYFCHQWSSNPLTFGAGTKVEIKR					binds	
1F5RHA x 1F5RKG11 (antibody, human IgG1, kappa, V domains shown, also called RHA x RKG11; 1F5RKG11 x 1F5RHA) VH: QVQLVQSGAEVKKPGASVKVSCKASGYTFTSYNMHWVRQAPGQRLEWIGAIYPGNGDTSYNQKFKGRVTVTRDTSANTAYMELSSLKSEDTAVYYCARSHYGSNYVDYFDYWGQGTLVTVSS VL: EIVLTQSPSSLSASVGDRVTITCRASSSLSFMHWYQQKPGKAPKPLIYATSNLASGVPSRFSGSGSGTDFTLTISSLQPEDFATYYCHQWSSNPLTFGGGTKVEIKR	-0.773	65	67	63		~10
1F5RHA x 1F5RKF12 (antibody, human IgG1, kappa, V domains shown, also called RHA x RKF12; 1F5RKF12 x 1F5RHA) VH: QVQLVQSGAEVKKPGASVKVSCKASGYTFTSYNMHWVRQAPGQRLEWIGAIYPGNGDTSYNQKFKGRVTVTRDTSANTAYMELSSLKSEDTAVYYCARSHYGSNYVDYFDYWGQGTLVTVSS VL: EIVLTQSPGTLSLSPGERATLSCRASSSLSFMHWYQQKPGQAPRPLIYATSNLASGIPARFSGSGSGTDFTLTISRLEPEDFAVYFCHQWSSNPLTFGQGTKVELKR	-1.15	66	67	65		
chimeric c1F5VH x 1F5RKB11 (antibody, human IgG1, kappa, V domains shown, IgG1 kappa from HEK293T conditioned medium; also called chimeric VH x 1F5RKB11) VH: QVQLRQPGAELVKPGASVKMSCKASGYTFTSYNMHWVKQTPGQGLEWIGAIYPGNGDTSYNQKFKGKATLTADKSSSTAYMQLSSLTSEDSAVYYCARSHYGSNYVDYFDYWGQGTLVTVST VL: EIVLTQSPSSLSASVGDRVTITCRASSSLSFMHWYQQKPGKAPKPWIYATSNLASGVPSRFSGSGSGTDYTLTISSLQPEDFATYFCHQWSSNPLTFGGGTKVEIKR					binds	
1F5RHB x chimeric c1F5VK (antibody, human IgG1, kappa, V domains shown, 1F5RHB is 1F5RHA with four back mutations) VH: QVQLVQSGAEVKKPGASVKVSCKASGYTFTSYNMHWVRQAPGQRLEWIGAIYPGNGDTSYNQKFKGRATLTADKSANTAYMELSSLKSEDTAVYYCARSHYGSNYVDYFDYWGQGTLVTVSS VL: QIVLSQSPAILSASPGEKVTMTCRASSSLSFMHWYQQKPGSSPKPWIYATSNLASGVPARFSGSGSGTSYSLTISRVEAEDAATYFCHQWSSNPLTFGAGTKVEIKR					binds	
chimeric antibody c1F5 (c1F5VH x c1F5VK) (antibody, human IgG1, kappa, V domains shown, Mouse 1F5 variable regions on human gamma1 / kappa constant regions; also called chimeric 1F5) VH: QVQLRQPGAELVKPGASVKMSCKASGYTFTSYNMHWVKQTPGQGLEWIGAIYPGNGDTSYNQKFKGKATLTADKSSSTAYMQLSSLTSEDSAVYYCARSHYGSNYVDYFDYWGQGTLVTVST VL: QIVLSQSPAILSASPGEKVTMTCRASSSLSFMHWYQQKPGSSPKPWIYATSNLASGVPARFSGSGSGTSYSLTISRVEAEDAATYFCHQWSSNPLTFGAGTKVEIKR	-0.781	58	59	57		
chimeric c1F5VH x 1F5RKB12 (antibody, human IgG1, kappa, V domains shown, IgG1 kappa from HEK293T conditioned medium) VH: QVQLRQPGAELVKPGASVKMSCKASGYTFTSYNMHWVKQTPGQGLEWIGAIYPGNGDTSYNQKFKGKATLTADKSSSTAYMQLSSLTSEDSAVYYCARSHYGSNYVDYFDYWGQGTLVTVST VL: EIVLTQSPGTLSLSPGERATLSCRASSSLSFMHWYQQKPGQAPRPWIYATSNLASGIPARFSGSGSGTDYTLTISRLEPEDFAVYFCHQWSSNPLTFGQGTKVELKR					binds	
rituximab (antibody, V domains shown) VH: QVQLQQPGAELVKPGASVKMSCKASGYTFTSYNMHWVKQTPGRGLEWIGAIYPGNGDTSYNQKFKGKATLTADKSSSTAYMQLSSLTSEDSAVYYCARSTYYGGDWYFNVWGAGTTVTVSA VL: QIVLSQSPAILSASPGEKVTMTCRASSSVSYIHWFQQKPGSSPKPWIYATSNLASGVPVRFSGSGSGTSYSLTISRVEAEDAATYYCQQWTSNPPTFGGGTKLEIK	-1.73	24	24	24		
